The record followed here is paper PMC9701220, “Molecular basis for glycan recognition and reaction priming of eukaryotic oligosaccharyltransferase” (Nature Communications, 2022).

The star is where a group is joined. 5‑TAMRA = CN(C)c1ccc2c(-c3ccc(C(=O)*)cc3C(=O)[O-])c3ccc(N(C)C)cc3[o+]c2c1

Holding throughout (settings): both partners purified
The target in experiment [1] is T1, STT3, catalytic subunit of S. cerevisiae OST (S. cerevisiae, UniProt P39007 1-718).
T1 construct: STT3, catalytic subunit of S. cerevisiae OST; Stood in the assay within the whole OST complex; also called S.c; STT3; source: S. cerevisiae, as a subunit of the purified OST complex (Rho-1D4 antibody Sepharose through OST4-1D4, SEC)
T1 sequence: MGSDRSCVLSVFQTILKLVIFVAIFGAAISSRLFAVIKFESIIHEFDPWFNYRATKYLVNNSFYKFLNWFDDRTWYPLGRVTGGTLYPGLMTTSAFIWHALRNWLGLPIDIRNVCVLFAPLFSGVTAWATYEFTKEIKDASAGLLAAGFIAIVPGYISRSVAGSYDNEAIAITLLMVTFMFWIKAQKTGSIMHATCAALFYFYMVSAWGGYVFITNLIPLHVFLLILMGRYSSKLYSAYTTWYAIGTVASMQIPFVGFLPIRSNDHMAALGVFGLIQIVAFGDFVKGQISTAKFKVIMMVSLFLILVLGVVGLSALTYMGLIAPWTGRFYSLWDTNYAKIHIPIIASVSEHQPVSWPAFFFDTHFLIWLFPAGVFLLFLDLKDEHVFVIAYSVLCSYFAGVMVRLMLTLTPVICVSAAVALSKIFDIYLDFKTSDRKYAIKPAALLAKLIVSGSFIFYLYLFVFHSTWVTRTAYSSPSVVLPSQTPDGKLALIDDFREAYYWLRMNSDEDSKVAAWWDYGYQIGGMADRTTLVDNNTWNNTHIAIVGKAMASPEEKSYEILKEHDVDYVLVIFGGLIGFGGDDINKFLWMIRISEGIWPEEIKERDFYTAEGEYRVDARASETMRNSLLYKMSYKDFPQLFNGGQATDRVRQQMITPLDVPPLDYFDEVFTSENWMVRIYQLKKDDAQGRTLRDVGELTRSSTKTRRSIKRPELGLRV
The experiment can be described thus: cryo-EM structure; nanodisc-reconstituted OST 2.5 uM incubated with 7.5 uM Dol20-PP-GlcNAc2Man9Glc3 and 500 uM TAMRA-YA(Dab)ATS peptide for 15 min before vitrification; MnCl2 present; the sample gave two states, LLO-bound (3.0 A) and ternary complex (3.1 A).

Experiment [2] addresses T2, WBP1, subunit of S. cerevisiae OST (S. cerevisiae, UniProt P33767 21-430).
T2 construct: WBP1, non-catalytic subunit of S. cerevisiae OST; Stood in the assay within the whole OST complex; also called WPB1; source: S. cerevisiae, as a subunit of the purified OST complex (Rho-1D4 antibody Sepharose through OST4-1D4, SEC)
T2 sequence (looked up): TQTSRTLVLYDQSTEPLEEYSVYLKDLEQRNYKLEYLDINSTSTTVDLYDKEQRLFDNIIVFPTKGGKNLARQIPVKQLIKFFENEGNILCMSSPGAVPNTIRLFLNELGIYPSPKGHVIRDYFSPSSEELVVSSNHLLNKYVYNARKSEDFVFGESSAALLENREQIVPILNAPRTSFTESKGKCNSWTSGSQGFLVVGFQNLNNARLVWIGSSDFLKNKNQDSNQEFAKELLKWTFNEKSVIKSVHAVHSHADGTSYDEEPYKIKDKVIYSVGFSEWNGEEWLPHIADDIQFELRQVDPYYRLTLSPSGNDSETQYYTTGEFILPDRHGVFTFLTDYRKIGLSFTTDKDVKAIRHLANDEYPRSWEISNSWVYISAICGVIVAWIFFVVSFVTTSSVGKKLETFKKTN
The experiment is described as above.

In experiment [3] the target is T3, S. cerevisiae oligosaccharyltransferase (OST) complex, OST3-containing (S. cerevisiae, UniProt P39007 1-718; P41543 23-476; Q92316 1-86; P48439 23-350; Q99380 1-36; P46964 …).
T3 construct: STT3, catalytic subunit of S. cerevisiae OST; OST1, subunit of S. cerevisiae OST (subcomplex I); OST5, subunit of S. cerevisiae OST (subcomplex I); OST3, oxidoreductase subunit of S. cerevisiae OST (subcomplex II); expressed from the plasmid YEp352-OST3 in an ost6 deletion strain; OST4, subunit of S. cerevisiae OST (subcomplex II); genomic OST4-1D4; OST2, subunit of S. cerevisiae OST (subcomplex …)
T3 sequence (P41543 23-476, chain 2 of 4): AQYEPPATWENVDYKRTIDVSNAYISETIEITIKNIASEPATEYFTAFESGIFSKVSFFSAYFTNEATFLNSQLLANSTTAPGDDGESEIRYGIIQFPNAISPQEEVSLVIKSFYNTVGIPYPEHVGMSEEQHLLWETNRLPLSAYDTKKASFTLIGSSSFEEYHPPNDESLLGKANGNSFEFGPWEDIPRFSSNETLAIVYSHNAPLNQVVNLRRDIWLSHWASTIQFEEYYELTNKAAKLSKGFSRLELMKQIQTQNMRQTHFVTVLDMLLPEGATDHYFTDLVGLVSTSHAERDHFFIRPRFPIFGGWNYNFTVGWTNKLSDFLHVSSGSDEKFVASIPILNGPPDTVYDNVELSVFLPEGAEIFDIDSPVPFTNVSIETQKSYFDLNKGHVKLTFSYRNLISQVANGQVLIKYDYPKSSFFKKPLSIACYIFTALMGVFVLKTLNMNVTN
T3 sequence (Q92316 whole entry, chain 3 of 4): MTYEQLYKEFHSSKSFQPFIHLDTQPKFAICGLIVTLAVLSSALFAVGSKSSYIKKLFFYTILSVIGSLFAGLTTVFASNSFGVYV
T3 sequence (Q99380 whole entry, chain 5 of 4): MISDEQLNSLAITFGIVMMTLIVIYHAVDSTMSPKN
T3 sequence (Q02795 20-286, chain 8 of 4, further chain): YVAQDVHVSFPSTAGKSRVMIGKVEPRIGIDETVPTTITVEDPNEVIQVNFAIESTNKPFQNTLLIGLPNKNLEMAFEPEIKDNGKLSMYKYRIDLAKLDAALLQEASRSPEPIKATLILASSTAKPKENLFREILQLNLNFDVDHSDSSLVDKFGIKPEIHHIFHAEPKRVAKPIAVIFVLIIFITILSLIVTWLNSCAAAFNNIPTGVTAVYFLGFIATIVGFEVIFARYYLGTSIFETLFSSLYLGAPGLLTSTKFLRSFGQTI
As to the kind of experiment: cryo-EM structure; digitonin-purified OST 18 uM incubated with 500 uM TAMRA-YANATS peptide for 15 min before vitrification, no LLO; the sample gave two states, peptide-bound (2.8 A) and apo (2.9 A).

B1: OST3, subunit of S. cerevisiae OST (natural protein, UniProt P48439 23-350, looked up)
chain: MSSNRLLKLANKSPKKIIPLKDSSFENILAPPHENAYIVALFTATAPEIGCSLCLELESEYDTIVASWFDDHPDAKSSNSDTSIFFTKVNLEDPSKTIPKAFQFFQLNNVPRLFIFKPNSPSILDHSVISISTDTGSERMKQIIQAIKQFSQVNDFSLHLPMDWTPIITSTIITFITVLLFKKQSKLMFSIISSRIIWATLSTFFIICMISAYMFNQIRNTQLAGVGPKGEVMYFLPNEFQHQFAIETQVMVLIYGTLAALVVVLVKGIQFLRSHLYPETKKAYFIDAILASFCALFIYVFFAALTTVFTIKSPAYPFPLLRLSAPFK
notes: OST3, oxidoreductase subunit of S. cerevisiae OST; Stood in the assay within the whole OST complex; source: S. cerevisiae (YEp352-OST3), as a subunit of the purified OST complex (Rho-1D4 antibody Sepharose through OST4-1D4, SEC)
With B1, in experiment [1], the binding result was “binds”.

B2: OST2, subunit of S. cerevisiae OST (natural protein)
chain: MAKAPKANTPKVTSTSSAVLTDFQETFKTSKRAYFAQIEKYPKLKLIDTFCFFLVLLGVIQCTFIILIRDNFPFNAFLAGFIICVGQFVLLMSLRLQLCNSFPGISKNRAFAEFIVASLILHFVCLHFIN
notes: OST2, non-catalytic subunit of S. cerevisiae OST; Stood in the assay within the whole OST complex; source: S. cerevisiae, as a subunit of the purified OST complex (Rho-1D4 antibody Sepharose through OST4-1D4, SEC)
Consider B2, for which the binding result in experiment [2] is “binds”.

B3: TAMRA-YANATS-NH2 (peptide)
peptide: {5‑TAMRA}-YANATS-NH2
SMILES: C[C@H](NC(=O)[C@H](Cc1ccc(O)cc1)NC(=O)c1ccc(-c2c3ccc(N(C)C)cc3[o+]c3cc(N(C)C)ccc23)c(C(=O)[O-])c1)C(=O)N[C@@H](CC(N)=O)C(=O)N[C@@H](C)C(=O)N[C@H](C(=O)N[C@@H](CO)C(N)=O)[C@@H](C)O
notes: acceptor substrate of OST; also called 5-TAMRA-YANATS; reactive peptide; source: bought: Genscript
For B3, in experiment [3], the binding result is listed as “binds”.
